A short description of data set [1]: folding stability dG unfold from trypsin proteolysis; higher = more stable. The method, boiled down: (§1)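 Designed mini-proteins with no cysteine and under 80 residues were kept only if AlphaFold2 dimer inter-PAE was above 15. In a PA-tagged cDNA display construct, they were digested with trypsin and chymotrypsin and then sequenced. K50 was inferred by Bayesian fitting of counts, and unfolding free energy was derived per protease or combined against a sequence-predicted unfolded-state K50 and a shared folded-state K50.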

Data set [2] in a line: folding stability dG unfold from chymotrypsin proteolysis; higher = more stable. The method, boiled down: as §1
Data set [3] in a line: folding stability dG unfold (combined trypsin and chymotrypsin); higher = more stable. The method, boiled down:
as §1

± gives the half width of the 95% confidence interval.

In the case of “SAGGVEEAREALEEAGFEIVDVDEETGTVTVRNEETEETITVRVEAPAPPPVEVEEEVEVEEEEEEESAGGS [r16_197_TrROS_Hall]”, the “folding stability dG unfold” value in data set [1] worked out at 1.14 ± 0.089 kcal/mol; in data set [2] it was 1.48 ± 0.12 kcal/mol; in data set [3] it was 1.34 ± 0.096 kcal/mol.
In the case of “SAGGVEEIVEKLPEEAEEVEITSEPHPLPGSTLTKYTIKAKNSATGKTKTYEVTVLYDPEGNVLEVLLSAGG [r13_358_JUSTAS]”, the “folding stability dG unfold” value was determined as 1.7 ± 0.061 kcal/mol in data set [1], 2.74 ± 0.082 kcal/mol in data set [2] and 2.22 ± 0.19 kcal/mol in data set [3].
The like results for “SAGGVITIRIPGIDNRNPETMRSKAVEIADRLRDHGVTVTDVEWDPDQGSMTITVMLPGQSLEDILKSAGGS [r8_344_TrROS]” were, in that order, 1.89 ± 0.062 kcal/mol, 2.69 ± 0.051 kcal/mol and 2.42 ± 0.084 kcal/mol.
As to “SAGGVLLEFPDGTTVEITVTTSTSTFKDPTTDKTVTKSSTTITVTRKTPDPVVTPVPASEAQRIFDSTSAGG [r13_809_JUSTAS]”, the “folding stability dG unfold” value in data set [1] is 2.13 ± 0.079 kcal/mol; in data set [2], 2.96 ± 0.2 kcal/mol; in data set [3], 2.47 ± 0.21 kcal/mol.
The like results for “SAGGVLTRVEIEIVEPGTGVPKRFEALLETGDDGTITLLLPDGTVIELPPTANIKILSEEVLSPSELSAGGS [r16_223_JUSTAS]” were, in that order, 2.02 ± 0.1 kcal/mol, 0.0233 ± 0.17 kcal/mol and 1.37 ± 0.21 kcal/mol.
The like results for “SAGGVPLLSAELLTTDETGNRTYRLVYYDPSTGKVYEVVVSQPFPTGDFNPFLFTASSLEEALELVTSSAGG [r13_26_TrMRF]” were, in that order, 2.61 ± 0.057 kcal/mol, 2.81 ± 0.038 kcal/mol and 2.7 ± 0.038 kcal/mol.
Taken in the same sequence, the figures for “SAGGWEIVGSITIEHPNRPIIFPVFRDPEEGNVWVSIYRMDPENGKWQPIGVVPFPKGDAEDALDDISAGGS [r8_423_TrROS]” were 1.03 ± 0.054 kcal/mol, 1.86 ± 0.11 kcal/mol and 1.53 ± 0.16 kcal/mol.
With “SAGGWITPELIEEIAKTIAEENPENGKEVPIEVVIPFPNSVIKIEIEFDPSNGKIEIEDIKVIPPNDLSAGG [r13_37_TrROS]”, the “folding stability dG unfold” value in data set [1] was found to be 0.67 ± 0.12 kcal/mol; in data set [2] it was 1.5 ± 0.12 kcal/mol; in data set [3], 1.16 ± 0.28 kcal/mol.
“SAGGWIWIPPDDPEDAKEWARELVLMFANHMKEQGQEDMTVDVDIHVWDPKDGNWYRIPVEFRVKPDSAGGS [r8_163_TrROS]”: the “folding stability dG unfold” value was found to be 1.97 ± 0.044 kcal/mol in data set [1], 2.31 ± 0.12 kcal/mol in data set [2] and 2.19 ± 0.13 kcal/mol in data set [3].
Regarding “SAGGWRYILRQIREAAKNGEEVTINFPPGMNPSFLLSWIRKENGAEVKPITVKPNPNGYGTINIKVKSAGGS [r16_318_TrROS]”, the “folding stability dG unfold” value in data set [1] amounted to 1.39 ± 0.054 kcal/mol; in data set [2], 2.02 ± 0.057 kcal/mol; in data set [3], 1.8 ± 0.073 kcal/mol.
In the case of “SAGGWTIREILEKNPNLREFAKEGWTIEIYYPNGKSGRVKIKEGSADDILDDINKNFPGPVEISITKSAGGS [r16_655_TrROS]”, the figures for the “folding stability dG unfold” value in data set [1], in data set [2] and in data set [3] were 0.659 ± 0.072 kcal/mol, 0.437 ± 0.23 kcal/mol and 0.573 ± 0.14 kcal/mol, respectively.
Taken in the same sequence, the figures for “SAGGYELELVFRFKLELKVGDGTLSFDLDLVIRIPLEPPAVPIGVEVKEDGSLVLTYPNGLKAEIPLSAGGS [r16_136_TrMRF]” were 3.32 ± 0.14 kcal/mol, 4.21 ± 0.06 kcal/mol and 3.93 ± 0.087 kcal/mol.
For “SAGGYVTSPMSPEIEAKAKEAGKTIDEAKELVIPVNDGGKFRTVKVTFYPETGTVAFYYEDTGEWSNLLSAG [r5_545_JUSTAS]”, the “folding stability dG unfold” value came to 0.499 ± 0.12 kcal/mol in data set [1], 1.05 ± 0.19 kcal/mol in data set [2] and 0.957 ± 0.22 kcal/mol in data set [3].
For the sequence “SAGHPWMFRAKVEYDDGKPVGEREINIPGMPIDDIASDLFNEPGLRKVKIEFYWMDGEPQEIEIPVKPSAGG [r19_269_TrROS]”, the “folding stability dG unfold” value in data set [1] turned out to be 0.801 ± 0.097 kcal/mol; in data set [2] it was 0.457 ± 0.28 kcal/mol; in data set [3] it was 0.689 ± 0.21 kcal/mol.
For the sequence “SAGIKEIAKKLGFPIHSVKPTEPDPENGKLKWTVIFRNEKNNYYVIEIDLDDPEKIEIERFPPGEEIPSAGG [r19_72_TrROS]”, the results for the “folding stability dG unfold” value in data set [1], in data set [2] and in data set [3] were 1.21 ± 0.13 kcal/mol, 1.61 ± 0.12 kcal/mol and 1.39 ± 0.21 kcal/mol, respectively.
Taken in the same sequence, the figures for “SAGIKIKDISRDPNGYVEVTIVYPPGKSIKEIIELIRKLFGFKIEKVEIYPSPNGVYITYRFRIPEGAISAG [r5_774_TrROS]” were 3.15 ± 0.11 kcal/mol, 4.47 ± 0.058 kcal/mol and 4.13 ± 0.12 kcal/mol.
The like results for “SAGIKPGEKIEKVEIVKVEVKKNKDGSKTVTVTIKLKDGKTITIKPGETIEIKIENKKEGEKITLKVKSAGG [r19_199_TrROS_Hall]” were, in that order, 1.45 ± 0.13 kcal/mol, 1.91 ± 0.13 kcal/mol and 1.74 ± 0.16 kcal/mol.
For “SAGIPYRVLELEIPGVGVRVEVRLAPDGRIVEVRVTVVPVPPVPPALPLRPELLVPDEDGRWYSPEELLSAG [r5_685_TrMRF]”, the “folding stability dG unfold” value in data set [1] was found to be 2.68 ± 0.059 kcal/mol; in data set [2], 2.26 ± 0.028 kcal/mol; in data set [3], 2.44 ± 0.11 kcal/mol.
For “SAGITIRLPGAEIEVQRYPHPGNGMPMYRVTVELENPEGKKPKVDVIFPPNQPPGQVENVARYIAKELKSAG [r5_704_TrROS]”, the “folding stability dG unfold” value in data set [1] was 0.858 ± 0.13 kcal/mol; in data set [2], -0.302 ± 0.28 kcal/mol; in data set [3], 0.472 ± 0.16 kcal/mol.
The like results for “SAGIYIPMDMTIDELVDILQKFGIRSVTTERMPEPGMYKATLKFPDLTIEIWYHPNWMHIEIVPPGEPISAG [r5_899_TrROS]” were, in that order, 2.77 ± 0.12 kcal/mol, 4.18 ± 0.07 kcal/mol and 3.85 ± 0.23 kcal/mol.
On to “SAGKETIKIKLFDKNGKLIAEIEIEKLPDGTYKIKIKNKKTGKELEIEVKIEDGKIYIKLPNGAILEIESAG [r5_809_TrROS_Hall]”, for which the “folding stability dG unfold” value is 3.51 ± 0.19 kcal/mol in data set [1], 5.13 ± 0.2 kcal/mol in data set [2] and 5.04 ± 0.2 kcal/mol in data set [3].
The like results for “SAGKEVIVITVEELEKLLKALKPGEKVKIVVINKDGKKVTFTAEVKDGKVEIKEAEKDIKPGDKIFIEKSAG [r5_85_TrROS_Hall]” were, in that order, 1.85 ± 0.17 kcal/mol, 3.49 ± 0.28 kcal/mol and 3.09 ± 0.46 kcal/mol.
On to “SAGKFKITNISPMEERKPEDDKWEEQPYIMIRMRWKDPQKALDEIKEEFGYPVNIQRDPDDGWATIMIPSAG [r5_907_TrROS]”, for which the “folding stability dG unfold” value in data set [1] turned out to be 0.137 ± 0.2 kcal/mol; in data set [2] it was 0.231 ± 0.18 kcal/mol; in data set [3] it was 0.248 ± 0.11 kcal/mol.
“SAGKIEIEVNEDGYKVRIKVEIEGKTYEFEIKVEGLSVEEIVKKALEELKKLFPNKKIKVEVEILPKKESAG [r5_180_TrROS_Hall]”: the “folding stability dG unfold” value is 4.14 ± 0.21 kcal/mol in data set [1], 4.81 ± 0.3 kcal/mol in data set [2] and 4.9 ± 0.54 kcal/mol in data set [3].
In the case of “SAGKIEILDEKPYKDSITVVAKLPGTDEIIVLTYNPKTKTVEIKIFPPKGVKTIPVKAKDIEKALKEIASAG [r5_769_TrMRF]”, the “folding stability dG unfold” value in data set [1] was determined as 0.728 ± 0.072 kcal/mol; in data set [2], 2.18 ± 0.16 kcal/mol; in data set [3] it was 1.7 ± 0.25 kcal/mol.
The like results for “SAGKIEKIVITKKKDGYVIKVYYKDNKKVKTYKAGKTLEEIKKKLEEEGFEIVKVEVKKVKPGEKVEISAGG [r19_386_TrROS_Hall]” were, in that order, 2.32 ± 0.18 kcal/mol, 3.23 ± 0.21 kcal/mol and 3.06 ± 0.43 kcal/mol.
The like results for “SAGKIKIEVEYLDPNGDWRRYEHTIPFKPNQSFEEAINELLPPGLREIKITEVDPEEGTIKIDIWIRPDSAG [r5_227_TrROS]” were, in that order, 2.12 ± 0.13 kcal/mol, 2.5 ± 0.061 kcal/mol and 2.41 ± 0.19 kcal/mol.
Taken in the same sequence, the figures for “SAGKIPPIKDIEPNPDNGMLMITIPFPDDGKLKVRIENKGQDQEYEFPPGMSFMIPPSNAPIKIEIEWDSAG [r14_96_TrROS]” were 0.858 ± 0.019 kcal/mol, 0.82 ± 0.069 kcal/mol and 0.874 ± 0.098 kcal/mol.
Consider “SAGKITLDGFTLDGEQTLTLTVEVPAPGGGTRTETFTATVTFDPETGTAHVPVTLPNGEELPFTFKVDASAG [r5_743_TrMRF]”, for which the “folding stability dG unfold” value in data set [1] is 1.18 ± 0.024 kcal/mol; in data set [2], 1.52 ± 0.09 kcal/mol; in data set [3], 1.42 ± 0.075 kcal/mol.
Taken in the same sequence, the figures for “SAGKKIELTFRNPDGWMIRITIEKKPNGGFQITEITWEPYPNGRMSAKIYVPNGKTIEVNSWDDILDALSAG [r5_618_TrROS]” were 1.09 ± 0.038 kcal/mol, 2.57 ± 0.075 kcal/mol and 2.12 ± 0.12 kcal/mol.
Taken in the same sequence, the figures for “SAGKKITAEELAKKIAEELGLPEDAKVEVEEVDGTIYIRVEGYVIKITVKDGEITIEIKPAPASPEALKSAG [r5_190_TrROS_Hall]” were 1.53 ± 0.044 kcal/mol, 2.91 ± 0.11 kcal/mol and 2.43 ± 0.28 kcal/mol.
With “SAGKKKKIKIKVKIIVNGKLKEIEIEVDENKTLEEILAEIKKKLPKNAIIIITNENGEKKIIILPKEELSAG [r5_77_TrROS_Hall]”, the “folding stability dG unfold” value in data set [1] turned out to be 2.49 ± 0.24 kcal/mol; in data set [2], 1.58 ± 0.1 kcal/mol; in data set [3] it was 1.89 ± 0.45 kcal/mol.
With “SAGKKKKIKKIEIEIEKNKDGKEIKVKVKVDGKEYEFTFPKNMSLEELLKKLKEELEKEGLKIEEVEIKSAG [r5_305_TrROS_Hall]”, the “folding stability dG unfold” value in data set [1] came out at 2.5 ± 0.13 kcal/mol; in data set [2], 2.8 ± 0.13 kcal/mol; in data set [3], 2.73 ± 0.18 kcal/mol.
Taken in the same sequence, the figures for “SAGKKKKYKIKIKIEISEDGTIKITIEIFDKNGKLVKKIEITIKLPKVKLSEEELKEAAKKGDLEKALKSAG [r5_944_TrROS_Hall]” were 2.23 ± 0.28 kcal/mol, 3.6 ± 0.28 kcal/mol and 2.95 ± 0.7 kcal/mol.
With “SAGKKKVIIVKVKPEDLEKLLEAIKKLPKEKVKRIEIEVNGKLYLIEVTDKEIKIYDIETGEEKTIKLSAGG [r19_154_TrROS_Hall]”, the “folding stability dG unfold” value was determined as 2.1 ± 0.22 kcal/mol in data set [1], 2.6 ± 0.061 kcal/mol in data set [2] and 2.39 ± 0.56 kcal/mol in data set [3].
The like results for “SAGKKKVLLAVDPENNALVLVEYETVGDVTFVRSLVFHGNTTTETLGLVRVIEPGKTEKLLISVPIPPSAGG [r19_292_TrMRF]” were, in that order, 2.07 ± 0.047 kcal/mol, 2.3 ± 0.05 kcal/mol and 2.26 ± 0.13 kcal/mol.

Source of the values: the supplement of paper PMC12764529.
